Like-named read-outs stand apart in the source and are kept apart here.

The conditions of data set [1]: in the fetus; cited from earlier work.
The subject of data set [2] is cancer cells. Conditions: literature; cited from earlier work.
In data set [3] the test system is monoclonal antibody to HAFP. Nature of the data set: Membrane EIA Alpha-fetoprotein test. Format: binding. Conditions: compared to human AFP sample. The procedure: (§1) PAFP extracted by the methods detailed above was analyzed using two different immune-enzyme kits in order to detect the presence of PAFP in the extraction obtained from the methods detailed above. PAFP samples were compared to AFP isolated from human serum and amniotic fluid. Initially, samples were subjected to the membrane EIA Alpha-fetoprotein test (catalog #410-1, IND Diagnostic Inc., Vancouver, Canada) which incorporates a monoclonal antibody to HAFP. […] A second test kit incorporating a polyclonal antibody to HAFP (catalog number T-8456, AFP-EIA-BEST-Strip, Vector-BEST, Novosibirsk, Russia) was then used to assay the presence of PAFP in the extraction.

Data set [4] has as its system polyclonal antibody to HAFP. Nature of the data set: AFP-EIA-BEST-Strip test. Format: binding. The procedure:
as §1

Data set [5] deals with cancer cells. Nature of the data set: Comparison of AFP properties: anticancer activity (Table 1). Conditions: applicant's studies (Examples 4 to 8). The text has this:
The present invention involves the use of exogenous alpha-fetoprotein (AFP) acting as a carrier or transporter of apoptosis-inducing agents directly to cancer cells resulting in the apoptosis of the cancer cells. U.S. Pat. Nos. 6,630,445 and 6,534,479 describe the use of recombinant human AFP for conjugation with cytotoxic agents.
(NCBI Blast analysis is available on the world wide web at ncbi.nlm.nih.gov/blast/; Parker, M. H. et al., Protein Expression and Purification, 38:177-183, 2004).

B1: AFP: alpha-fetoprotein, major transport glycoprotein in the fetus (protein, UniProt P02771 19-609, looked up)
Alpha-fetoprotein: RTLHRNEYGIASILDSYQCTAEISLADLATIFFAQFVQEATYKEVSKMVKDALTAIEKPTGDEQSSGCLENQLPAFLEELCHEKEILEKYGHSDCCSQSEEGRHNCFLAHKKPTPASIPLFQVPEPVTSCEAYEEDRETFMNKFIYEIARRHPFLYAPTILLWAARYDKIIPSCCKAENAVECFQTKAATVTKELRESSLLNQHACAVMKNFGTRTFQAITVTKLSQKFTKVNFTEIQKLVLDVAHVHEHCCRGDVLDCLQDGEKIMSYICSQQDTLSNKITECCKLTTLERGQCIIHAENDEKPEGLSPNLNRFLGDRDFNQFSSGEKNIFLASFVHEYSRRHPQLAVSVILRVAKGYQELLEKCFQTENPLECQDKGEEELQKYIQESQALAKRSCGLFQKLGEYYLQNAFLVAYTKKAPQLTSSELMAITRKMAATAATCCQLSEDKLLACGEGAADIIIGHLCIRHEMTPVNPGVGQCCTSSYANRRPCFSSLVVDETYVPPAFSDDKFIFHKDLCQAQGVALQTMKQEFLINLVKQKPQITEEQLEAVIADFSGLLEKCCQGQEQEVCFAEEGQKLISKTRAALGV
As to B1, the halflife in data set [1] was 72 to 120 h.

B2: HAFP: human alpha-fetoprotein (protein, UniProt P02771 19-609, looked up)
Alpha-fetoprotein: RTLHRNEYGIASILDSYQCTAEISLADLATIFFAQFVQEATYKEVSKMVKDALTAIEKPTGDEQSSGCLENQLPAFLEELCHEKEILEKYGHSDCCSQSEEGRHNCFLAHKKPTPASIPLFQVPEPVTSCEAYEEDRETFMNKFIYEIARRHPFLYAPTILLWAARYDKIIPSCCKAENAVECFQTKAATVTKELRESSLLNQHACAVMKNFGTRTFQAITVTKLSQKFTKVNFTEIQKLVLDVAHVHEHCCRGDVLDCLQDGEKIMSYICSQQDTLSNKITECCKLTTLERGQCIIHAENDEKPEGLSPNLNRFLGDRDFNQFSSGEKNIFLASFVHEYSRRHPQLAVSVILRVAKGYQELLEKCFQTENPLECQDKGEEELQKYIQESQALAKRSCGLFQKLGEYYLQNAFLVAYTKKAPQLTSSELMAITRKMAATAATCCQLSEDKLLACGEGAADIIIGHLCIRHEMTPVNPGVGQCCTSSYANRRPCFSSLVVDETYVPPAFSDDKFIFHKDLCQAQGVALQTMKQEFLINLVKQKPQITEEQLEAVIADFSGLLEKCCQGQEQEVCFAEEGQKLISKTRAALGV
Turning to B2, the “Anticancer activity (AFP-mediated delivery of apoptosis-inducing agent bound to cancer cells)” value in data set [2] was “Yes”.

B3: PAFP: porcine alpha-fetoprotein, butanol-extracted from blood and amniotic fluid of embryos of 3 to 14 weeks gestation (protein, UniProt Q8MJ76 19-610, looked up)
Alpha-fetoprotein: RTMHENAYGIASILDSSQCSAEMNLVDLATIFFAQFVQEATYKEVNQMVKDVLTVIEKSTGSEQPAGCLENQVSVFLEEICHEEEIPEKYGLSHCCSQSGEERHNCFLARKKAAPASIPPFQVPEPVTSCKAYEENRELFMTRYIYEIARRHPFLYAPTILSLAAQYDKIIPPCCKAENAVECFQTKAASITKELRESSLLNQHMCTVMRQFGARTFRAITVTKLSQKFPKANFTEIQKLVLDVAHIHEECCRGNVLECLQDAERVVSYVCSQQDTLSSKIAECCKLPTTLELGQCIIHAENDDKPEGLSPNLNRFLGERDFNQLSSREKDLSMARFTYEYSRRHPKLAVPVILRVAKGYQELLEKCSQSENPLECQDKGEEELEKYIQESQALAKRSCGLFQKLGEYYLQNAFLVAYTKKAPQLTPPELMALTRKMATTGAACCHLSEDRQLACGEGAADLIIGQLCIRHEEMPINPGVGQCCTSSYANRRPCFSSLVLDETYVPPPFSDDKFIFHKDLCQAQGVALQTMKQQFLINLVKQKPQITEEQLEAVIADFSGLLEKCCQGQEQEVCFAEEGPALISKTRASLGV
On to B3, for which the “Reaction with EIA Alpha-fetoprotein test kit” value in data set [3] is “did not produce a reaction”. In addition, in data set [4], the “Reaction with AFP-EIA-BEST-Strip kit” value is on record as “positive reaction”. For the same molecule, the “Anticancer activity (AFP-mediated delivery of apoptosis-inducing agent bound to cancer cells)” value in data set [5] was “Yes”.
